According to article PMC6539309, “PgMYB2, a MeJA-Responsive Transcription Factor, Positively Regulates the Dammarenediol Synthase Gene Expression in Panax Ginseng”:

Target: PgMYB2 (TF fusion) (Panax ginseng, UniProt A0A1Z1CH15 1-280)
Experiment: EMSA; LightShift Chemiluminescent EMSA kit protocol, room temperature, 20 min, native PAGE; protein stored in 20 mM Tris-HCl pH 7.2; binding buffer not stated
Conditions: protein: recombinant; tags: N-terminal trigger factor (TF) + 6xHis (pCold/TF); label: biotin; blunt

Chain of PgMYB2 (TF fusion) (A0A1Z1CH15 entry or part of it): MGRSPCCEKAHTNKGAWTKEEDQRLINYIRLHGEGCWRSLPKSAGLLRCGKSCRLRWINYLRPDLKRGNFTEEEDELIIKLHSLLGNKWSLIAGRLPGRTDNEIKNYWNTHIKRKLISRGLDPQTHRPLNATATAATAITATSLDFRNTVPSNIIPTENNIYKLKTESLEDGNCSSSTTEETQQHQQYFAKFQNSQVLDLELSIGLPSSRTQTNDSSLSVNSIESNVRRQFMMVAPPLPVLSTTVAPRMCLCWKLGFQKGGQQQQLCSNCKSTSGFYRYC

B1: MBSII probe (dsDNA)
DNA 1: GACTGGCATTGATTTAAAAGGCGGT
DNA 2: ACCGCCTTTTAAATCAATGCCAGTC
binding result: binds
